Measured values as given in the nanobody polyreactivity screen of Harvey et al. (2022).

Experiment: yeast display, Sf9 membrane polyspecificity reagent, FACS + sequencing; frameworks hold sequencing errors
Method in brief: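 Genes from sorted yeast were amplified by colony PCR, read by MiSeq 2 × 250 sequencing and filtered on CDR length. These cells carried a synthetic nanobody library in Saccharomyces cerevisiae BJ5465 and were sorted by FACS into low and high (top ~1%) gates on anti-HA and streptavidin fluorescence. Polyreactivity is labelled according to the gate of origin.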

With “QVQLVESGGRKVQAGGSLRLICAASGSIFYAYTMGRYRQAPGKERELSTYADSVKGRFTISRDNAKNTVYLQMNSLKPEDTAVYYCNARFYKKTLSYRVKYRMEYWGQGTQVTVSS” the “polyreactivity (PSR sort gate)” value was “low polyreactivity”.

For “QVQLVESGGGLVQAGGSLRLSCAASGSIFVAYAMGWDRQAPGKERELVAAISSSGGTTYYAYSVKGRFTISRDNAKNTVYLQMNSLKPEDTAVYYCAARDYKYYYWGQGTQVTVSS”, the “polyreactivity (PSR sort gate)” value was “high polyreactivity”.

In the case of “QVQLVESGGGLVQAGGSLRLSCAASGRTFLRYAMGWYRQAPGKERELVAAITYGGRTNYADSVKGRFTISRDNAKNTVYLQMNSLKPEDTAVYYCAADRTYYYGLRVYYWGQGTQVTVSS”, the “polyreactivity (PSR sort gate)” value is reported as “high polyreactivity”.

For “QVQLVESGGGLVQAGGSLRLSCAASGSTFQFYAMGWYRQAPGKEREFVAAIDFGGAGTYYADSVKGRFTISRDTAKNTVYLQMNSLKPEDTAVYYCNARDGVTSEFDYWGQGTQVTVSS”, the “polyreactivity (PSR sort gate)” value was “low polyreactivity”.

With “QVQLVESGGGLVQAGGILRLSCAASGSIFPFNAMGWYRQAPGKERDLVAAITRSGGSTYYADSVKGRFTISRDNAKNTVYLQMNSLKPEDTSVYYCATDPEWPLPAYYYWGQGTQVTVSS” the “polyreactivity (PSR sort gate)” value was “low polyreactivity”.

With “QGQLVESGGGLVQAGGSLRLSCAASGRTFKYYAMGWYRQAPGQERELVAAISYNGGSTFYADSVKGRFTISRDNAKNTVYLQMNSLKPEDTAVYYCAAVYRYRNRRDYDYWGQGTQVTVSS” the “polyreactivity (PSR sort gate)” value was “high polyreactivity”.

In the case of “QVQLVESGGGLVQAGGSLRLSCAASGSIYGYTMGWYRQAPGKERELVAAINRRADRTYYADSVKGRFTISRDNAKNTVYLQMNSLKPEDTAVYYCNKGGWYTLGYCGQGTQVTVSS”, the “polyreactivity (PSR sort gate)” value is reported as “high polyreactivity”.

With “QVQLVESGGGLVQAGGSLRLSCAASGFIFYKNAMGWYRQAPGKERELVADISKRGASTYYADSVKGRFTISRDNAKNTVYLQMNSLKPEDTAVYYCAAGYYRASTTVTHGGIEGDSWGQGTQVTVSS” the “polyreactivity (PSR sort gate)” value was “high polyreactivity”.

With “QVQLVESGGGLVQAGGSLRLSCAASGSIFYFNAMGWYRQAPGKERELVARISGSSGRTYFADSVKGRFTISRDNAKNTVYLQMNSLKPEDTAVYYCAARYYTSATMDYWGQGTQVTVSS” the “polyreactivity (PSR sort gate)” value was “high polyreactivity”.

With “QVQLVESGGGLVQAGGSLRLSCAASGSMFSTYAMGWYRQAPGKERELVAASSRSGGSTYYADSVKGRFTISRDNAKNTVYLQMNSLKPEDTADYYCAKVARRQRYDYWGQGTQVTVSS” the “polyreactivity (PSR sort gate)” value was “high polyreactivity”.

With “QVQLVESGGGLVQAGGSLRLSCAASGRISLGNAMGWYRQAPGKERELVAVITRGGRTSYADSVKGRFTISRDNAKNTVYLQMNSLKPEDTAVYYCAAESPVYHLVTYDYWGQGTQVTVSS” the “polyreactivity (PSR sort gate)” value was “high polyreactivity”.

For “QDQLEESGGGLRQAGGSLRLTCAASGIIFPYYTKGLYRQATGKEKLVAAISSRGGSTYYADSVKGRFTISRDNAKNTVYLQMTSLKPEDTAVYYCAAKNVYHDDFWGQGTQVTVSS”, the “polyreactivity (PSR sort gate)” value was “high polyreactivity”.

In the case of “QVQLVESGGGLVQAGGSLRLSCAASGRTFRPYAMGWYRQAPGKERELVAAITGGTRTYYADSVKGRFTISRDNAKNTVYLQMNSLKPEDTAVYYCAKGDFFSKHDYLGQGTQVTVSS”, the “polyreactivity (PSR sort gate)” value is reported as “low polyreactivity”.

With “QVQLVESGGGLVQAGGSLRLSCAASGFTFDYYAMGWYRQAPGKERELVAAISSSGGSTYYADSVKGRFTISRDNAKNTVYLQMNSLKPADTAVYYCGTGHSKKYDYWGQGTQVTVSS” the “polyreactivity (PSR sort gate)” value was “high polyreactivity”.

With “QVQLVESCGGLVQAGGSLRLSCAASGLIFWKYAMGWYRQAPGKERELVAAITSGGSTNYADSVKGRFTISRDNAKNTVYLQMNSLKPEDTAVYYCNARSWFEYYWGQGTQVTVSS” the “polyreactivity (PSR sort gate)” value was “high polyreactivity”.

With “QVQLVESGGGLVQAGGSLRLSCAASGGTIVWNAMGWNRQAPGKEREFVAAITSSGGSTYYADSVKGRFTISRDNAKNSVYLQMNSLKPEDTAVYYCNVDTHSSYEFNSWGQGTQVTVSS” the “polyreactivity (PSR sort gate)” value was “low polyreactivity”.

With “QVQLVESGGGLVQAGGSLRLSCAASGGIFNYYAMGWYRQAPGKERELVAAMTSAGSTYADSVKGRFTISRDNATNTVSLQMNILKPEDTAVYYCNAVGVVVKFGYYLIGYAKWYDYWGQGSQVTVSS” the “polyreactivity (PSR sort gate)” value was “low polyreactivity”.
